# Data reported in patent US7057015B1, “Hormone receptor functional dimers and methods of their use” (The Salk Institute for Biological Studies, priority 1999, dated 2006).
# T1: Drosophila melanogaster ecdysone receptor (monomeric) (Drosophila melanogaster, UniProt P34021 1-878)
# T1 construct: also called EcR; dmEcR
# T1 sequence (looked up): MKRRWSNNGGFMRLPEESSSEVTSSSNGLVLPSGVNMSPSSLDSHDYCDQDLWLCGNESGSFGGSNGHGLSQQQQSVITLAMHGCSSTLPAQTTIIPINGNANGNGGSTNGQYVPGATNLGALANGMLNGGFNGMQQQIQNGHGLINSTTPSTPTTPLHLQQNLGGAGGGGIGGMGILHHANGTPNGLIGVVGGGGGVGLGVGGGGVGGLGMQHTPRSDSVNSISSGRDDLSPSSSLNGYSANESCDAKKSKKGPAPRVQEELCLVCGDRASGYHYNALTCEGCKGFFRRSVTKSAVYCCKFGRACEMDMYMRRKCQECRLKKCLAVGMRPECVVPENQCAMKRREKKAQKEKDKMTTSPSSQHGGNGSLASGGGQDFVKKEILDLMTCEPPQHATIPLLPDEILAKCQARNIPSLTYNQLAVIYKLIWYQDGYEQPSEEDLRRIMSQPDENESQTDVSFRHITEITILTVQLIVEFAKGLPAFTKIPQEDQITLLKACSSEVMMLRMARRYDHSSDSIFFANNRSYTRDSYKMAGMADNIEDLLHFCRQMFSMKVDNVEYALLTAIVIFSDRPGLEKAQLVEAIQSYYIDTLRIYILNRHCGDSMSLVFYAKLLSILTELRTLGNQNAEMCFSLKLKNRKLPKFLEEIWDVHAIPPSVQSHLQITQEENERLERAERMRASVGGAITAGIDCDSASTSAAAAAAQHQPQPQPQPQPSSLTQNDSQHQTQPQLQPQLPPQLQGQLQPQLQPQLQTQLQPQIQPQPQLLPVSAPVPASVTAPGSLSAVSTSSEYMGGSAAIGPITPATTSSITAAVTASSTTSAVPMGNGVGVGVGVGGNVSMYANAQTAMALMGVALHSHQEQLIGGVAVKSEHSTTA
# Tests used:
# [1] = target: T1, Drosophila melanogaster ecdysone …; assay: gel mobility shift on 32P-labelled EcRE probe, proteins translated in vitro
# Experimental: The reactions were allowed to proceed at 23° C. for 5 minutes at which time ligand or vehicle was added and the reaction allowed to continue for 20 additional minutes. Band volumes were quantified using laser scanning densitometry.
# EcRE probe = assay: Gel mobility shift analysis of EcRE probe binding by FDs; conditions: 1 μM murA vs vehicle, extracts of transfected 293 cells
# Experimental: Preparation of the invention fusion protein FDs for gel shift analysis by transient transfection into 293 cells was as follows: 300 ng of individual receptor plasmids and 100 ng pCH110 internal control plasmid were cotransfected into 293 cells at 60% density in Costar 6-well plates. One well of each group was treated with 1 μM murA as ligand at the time of transfection. 40 hours later, extracts of transfected 293 cells were made by scraping the cells from a well into a low volume of phosphate buffered saline, pelleting the cells, resuspending them in 200 μl 5×gel shift buffer (Yao et al., supra 1992), and sonicating with a Kontes cell disrupter for three 10-sec. bursts at output level 30. The extracts were then centrifuged to clear the lysate and the protein was quantified. […]
# Comparative gel mobility shift analyses of FDs with control in vitro translated receptor complexes were performed using double stranded EcRE probes and labeled by Klenow fill using ^32P-dCTP and cold dGAT by standard methods. […] Band volumes were quantified using laser scanning densitometry.
# An autoradiogram of FDs and controls treated either with control vehicle or with 1 μM of murA as ligand was made with markers indicating endodimer FD or wild type receptor-binding complex band shifts. […] FIG. 2A is a graph that quantifies endodimer-sized band volumes obtained from the autoradiogram.
# [2] = system: E4-luc reporter plasmid in 293 cells; assay: Transient transfection luciferase transactivation assay with E4-luc reporter; assay type: cell-based, human
# Experimental: For quantitative transactivation analysis, transfections were performed in triplicate in 24-well plates by calcium-phosphate co-precipitation with 100 ng of an individual receptor, the reporter plasmid E4-luc, and pCH110 (SV40-β-galactosidase) as an internal control. Briefly, the reporter plasmid, E4-luc, was constructed of 4-tandem EcREs inserted upstream of a thymidine kinase gene minimal promoter directing luciferase expression. […] 1 μM ligand was added at the time of transfection, and the cells were harvested for luciferase assay 40 hours later. Harvested cell extracts were split, and one part was analyzed in a luminometer for luciferase activity and the other part was analyzed for β-galactosidase activity using an orthonitrophenyl galactoside assay by standard methods. Luciferase levels were normalized to β-galactosidase values to correct for slight differences in transfection efficiency.
binding result [1],relative-fold increase in response element binding (endodimer band) resulting from ligand treatment (EcRE probe) [fold],Molecule,Rel. Ind. = relative induction of individual receptor groups ([2]; +ligand (1 μM murA) versus −ligand) [fold],"+Lig/E4 = luciferase activity vs. reporter only with ligand ([2]; transiently co-transfected 293 cells, 1 μM murA, relative to E4-luc reporter only)","−Lig/E4 = luciferase activity vs. reporter only without ligand ([2]; transiently co-transfected 293 cells, without ligand, relative to E4-luc reporter only)"
binds,,"Drosophila melanogaster ultraspiracle protein (monomeric) (receptor, UniProt P20153 1-508, looked up, also called Usp; dmUsp) MDNCDQDASFRLSHIKEEVKPDISQLNDSNNSSFSPKAESPVPFMQAMSMVHVLPGSNSASSNNNSAGDAQMAQAPNSAGGSAAAAVQQQYPPNHPLSGSKHLCSICGDRASGKHYGVYSCEGCKGFFKRTVRKDLTYACRENRNCIIDKRQRNRCQYCRYQKCLTCGMKREAVQEERQRGARNAAGRLSASGGGSSGPGSVGGSSSQGGGGGGGVSGGMGSGNGSDDFMTNSVSRDFSIERIIEAEQRAETQCGDRALTFLRVGPYSTVQPDYKGAVSALCQVVNKQLFQMVEYARMMPHFAQVPLDDQVILLKAAWIELLIANVAWCSIVSLDDGGAGGGGGGLGHDGSFERRSPGLQPQQLFLNQSFSYHRNSAIKAGVSAIFDRILSELSVKMKRLNLDRRELSCLKAIILYNPDIRGIKSRAEIEMCREKVYACLDEHCRLEHPGDDGRFAQLLLRLPALRSISLKCQDHLFLFRITSDRPLEELFLEQLEAPPPPGLAMKLE",,,
binds,,"human retinoid X receptor alpha (monomeric) (receptor, UniProt P19793 1-462, looked up, also called RXR; hRXR) MDTKHFLPLDFSTQVNSSLTSPTGRGSMAAPSLHPSLGPGIGSPGQLHSPISTLSSPINGMGPPFSVISSPMGPHSMSVPTTPTLGFSTGSPQLSSPMNPVSSSEDIKPPLGLNGVLKVPAHPSGNMASFTKHICAICGDRSSGKHYGVYSCEGCKGFFKRTVRKDLTYTCRDNKDCLIDKRQRNRCQYCRYQKCLAMGMKREAVQEERQRGKDRNENEVESTSSANEDMPVERILEAELAVEPKTETYVEANMGLNPSSPNDPVTNICQAADKQLFTLVEWAKRIPHFSELPLDDQVILLRAGWNELLIASFSHRSIAVKDGILLATGLHVHRNSAHSAGVGAIFDRVLTELVSKMRDMQMDKTELGCLRAIVLFNPDSKGLSNPAEVEALREKVYASLEAYCKHKYPEQPGRFAKLLLRLPALRSIGLKCLEHLFFFKLIGDTPIDTFLMEMLEAPHQMT",,,
,0.9,"E5U: fusion protein: Drosophila EcR at amino terminus, 5 linker segments (65 amino acids), ultraspiracle protein (protein) MKRRWSNNGGFMRLPEESSSEVTSSSNGLVLPSGVNMSPSSLDSHDYCDQDLWLCGNESGSFGGSNGHGLSQQQQSVITLAMHGCSSTLPAQTTIIPINGNANGNGGSTNGQYVPGATNLGALANGMLNGGFNGMQQQIQNGHGLINSTTPSTPTTPLHLQQNLGGAGGGGIGGMGILHHANGTPNGLIGVVGGGGGVGLGVGGGGVGGLGMQHTPRSDSVNSISSGRDDLSPSSSLNGYSANESCDAKKSKKGPAPRVQEELCLVCGDRASGYHYNALTCEGCKGFFRRSVTKSAVYCCKFGRACEMDMYMRRKCQECRLKKCLAVGMRPECVVPENQCAMKRREKKAQKEKDKMTTSPSSQHGGNGSLASGGGQDFVKKEILDLMTCEPPQHATIPLLPDEILAKCQARNIPSLTYNQLAVIYKLIWYQDGYEQPSEEDLRRIMSQPDENESQTDVSFRHITEITILTVQLIVEFAKGLPAFTKIPQEDQITLLKACSSEVMMLRMARRYDHSSDSIFFANNRSYTRDSYKMAGMADNIEDLLHFCRQMFSMKVDNVEYALLTAIVIFSDRPGLEKAQLVEAIQSYYIDTLRIYILNRHCGDSMSLVFYAKLLSILTELRTLGNQNAEMCFSLKLKNRKLPKFLEEIWDVHAIPPSVQSHLQITQEENERLERAERMRASVGGAITAGIDCDSASTSAAAAAAQHQPQPQPQPQPSSLTQNDSQHQTQPQLQPQLPPQLQGQLQPQLQPQLQTQLQPQIQPQPQLLPVSAPVPASVTAPGSLSAVSTSSEYMGGSAAIGPITPATTSSITAAVTASSTTSAVPMGNGVGVGVGVGGNVSMYANAQTAMALMGVALHSHQEQLIGGVAVKSEHSTTAGPTGPGPGGGSGGGSGTGPGGGSGGGSGTGPGGGSGGGSGTGPGGGSGGGSGTGPGGGSGGGSGTMDNCDQDASFRLSHIKEEVKPDISQLNDSNNSSFSPKAESPVPFMQAMSMVHVLPGSNSASSNNNSAGDAQMAQAPNSAGGSAAAAVQQQYPPNHPLSGSKHLCSICGDRASGKHYGVYSCEGCKGFFKRTVRKDLTYACRENRNCIIDKRQRNRCQYCRYQKCLTCGMKREAVQEERQRGARNAAGRLSASGGGSSGPGSVGGSSSQGGGGGGGVSGGMGSGNGSDDFMTNSVSRDFSIERIIEAEQRAETQCGDRALTFLRVGPYSTVQPDYKGAVSALCQVVNKQLFQMVEYARMMPHFAQVPLDDQVILLKAAWIELLIANVAWCSIVSLDDGGAGGGGGGLGHDGSFERRSPGLQPQQLFLNQSFSYHRNSAIKAGVSAIFDRILSELSVKMKRLNLDRRELSCLKAIILYNPDIRGIKSRAEIEMCREKVYACLDEHCRLEHPGDDGRFAQLLLRLPALRSISLKCQDHLFLFRITSDRPLEELFLEQLEAPPPPGLAMKLE",1.6,0.62,0.41
